This data set can be described thus: amyloid nucleation score (Sup35N fusion, yeast selection) (log enrichment); library NNK3; higher = more nucleation; inactive = no reads after selection. The essentials:
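Output and input plasmid inserts were sequenced by Illumina after psi-negative yeast carrying Sup35N fused to peptides of 20 random codons had been induced 24 hours with 100 μM copper sulfate and grown 7 days at 30°C on medium lacking adenine and uracil. The nucleation score is the DiMSum log enrichment of output over input reads, centred on the mode score of non-aggregating sequences. Sequences with under 100 input reads were excluded.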

± gives the uncertainty stated by the source.

Take LSRCVPNDVGKAYMMKEKRK: the amyloid nucleation score entry is “inactive”.

For the substance VQYNHLRVVSHDVNENGEPR, the amyloid nucleation score entry was “inactive”.

Consider LPIQVSFVMVRWGSMFMFRN, for which the amyloid nucleation score result is “inactive”.

Turning to GSNFICTFRVGKGYRPVCLE, the amyloid nucleation score result was “inactive”.

For PAGWGWSCCFDFLSSISKIY, the amyloid nucleation score entry was “inactive”.

With SPMRLLGSSFGQ, the amyloid nucleation score entry is “inactive”.

RVFYIVDMVFIFKRCSIRES: the amyloid nucleation score result is “inactive”.

Take RNSIMSSDWSHSGYGS: the amyloid nucleation score entry was “inactive”.

In the case of EQIGGI, the amyloid nucleation score entry was “inactive”.

As for PWKCTWFMALEVFRMYLRSF, the amyloid nucleation score result is “inactive”.

Consider TKTHCFLLLSGVCVGRVLGW, for which the amyloid nucleation score result was “inactive”.

With AMHHSNRSKPVSVIRWMWRC, the amyloid nucleation score entry is “inactive”.

For the substance SSLMRIHLPLVYQ, the amyloid nucleation score entry is “inactive”.

Substance LDRSVIIVSLILS came in with an amyloid nucleation score of 1.87 ± 0.072.

As for VILMEDKSLMSWTRTIIVSM, the amyloid nucleation score entry was “inactive”.

With WVDWFESSQTFFCALYE, the amyloid nucleation score result is “inactive”.

Consider HSVIIAAMLSEISVSGLISG, for which the amyloid nucleation score entry was “inactive”.

As to NFYRCGVWHLNWYEYDVLRL, the amyloid nucleation score entry was “inactive”.

Turning to VIGGVEREQQDRLKL, the amyloid nucleation score entry is “inactive”.

Consider YSGGLWWYWPSECNNAKYVL, for which the amyloid nucleation score result was “inactive”.

Regarding RKGNGMHKNSYSTARMYCGF, the amyloid nucleation score entry was “inactive”.

Turning to LYINYLCWMNKYTACLPLHL, the amyloid nucleation score result was “inactive”.

With GWFMCVSTAWGVYNAYIPMQ, the amyloid nucleation score entry is “inactive”.

For DNCEDEDKNRRNVRLYRGWV, the amyloid nucleation score result is “inactive”.

FYSLNSFSFYASRVITDNRV showed an amyloid nucleation score of 1.09 ± 0.13.

As to VFTFFSMCMTPSYYPCRLAC, the amyloid nucleation score entry is “inactive”.

Consider ISTVNNIRIRFASKLGFFE, for which the amyloid nucleation score came to 1.25 ± 0.071.

Turning to CMVFMYQILVPAWALRSYIL, the amyloid nucleation score result is “inactive”.

As for NTEITQLSIVLFCILYQYSV, the amyloid nucleation score came out at 1.46 ± 0.11.

For LLVSQLRYYWTATRNKFIF, the amyloid nucleation score entry is “inactive”.

In the case of HCGYGLFNCK, the amyloid nucleation score result is “inactive”.

For the substance VFESCEYSRQVVGNFRDEM, the amyloid nucleation score entry is “inactive”.

GKYSYLDIPTTIVYMFIH came in with an amyloid nucleation score of 1.44 ± 0.14.

For CDLDLLHGWCGNKRMGSCGR, the amyloid nucleation score entry was “inactive”.

As to YCTRGNSTNLEYELECLVIF, the amyloid nucleation score entry is “inactive”.

As to DGACVSSRLSWGLVYMKKCS, the amyloid nucleation score entry was “inactive”.

As to NEVETESCIELTFPMQYWQV, the amyloid nucleation score stood at 2.24 ± 0.093.

As to KLSCMSTIVCRYTFLQAKQT, the amyloid nucleation score result is “inactive”.

Turning to LSWRTPISAMFDSWACGGGR, the amyloid nucleation score entry was “inactive”.

For GFFCIYWGHWGFSES, the amyloid nucleation score result is “inactive”.

On to PWALTMRNVLSKYMFGGGLR, for which the amyloid nucleation score result was “inactive”.

RINESRLYLSEVKYGLTCVR: the amyloid nucleation score result is “inactive”.

With NGFMDNCAVSCRTIIVVSYR, the amyloid nucleation score amounted to 2.59 ± 0.074.

As for SRSPNFQKFLHCMTTSN, the amyloid nucleation score result is “inactive”.

Regarding FKLHIWSS, the amyloid nucleation score entry is “inactive”.

As for LDFCFLGHRWRSFSGSYRKS, the amyloid nucleation score result was “inactive”.

With LPTSFTSFNLKSLASMT, the amyloid nucleation score result was “inactive”.

Consider GIYCMSVSWFNVDLDTTGNT, for which the amyloid nucleation score entry was “inactive”.

As for VSDILADCPIIRPGGYCCVS, the amyloid nucleation score entry was “inactive”.

For the substance QCHSLYSWNDGWC, the amyloid nucleation score result was “inactive”.

As for ELCVRQLCY, the amyloid nucleation score entry is “inactive”.

In the case of SPVSNYYDIKVVRDVSGCFT, the amyloid nucleation score entry is “inactive”.

Turning to GLVCFYTGLDVMLDTREFYR, the amyloid nucleation score entry was “inactive”.

Regarding NPWPAWPGTSCIRDLQTSIR, the amyloid nucleation score entry was “inactive”.

Turning to LICIQCWFYDSYHTQQLWGL, the amyloid nucleation score amounted to 2.16 ± 0.056.

Take CRNSEKVWDPQRTVRALSRF: the amyloid nucleation score result is “inactive”.

Consider TIYNEGCVCKVYKESLGGSA, for which the amyloid nucleation score result is “inactive”.

As for RIVGRLVSRALWWV, the amyloid nucleation score entry was “inactive”.

For the substance KMDQYCWGFFVSWYMRKKVF, the amyloid nucleation score entry was “inactive”.

For the substance LYSCMFIMLFQNYFLPIGVA, the amyloid nucleation score result is “inactive”.

Consider AAFAREDRCSLLVWYSTCWD, for which the amyloid nucleation score entry is “inactive”.

Regarding GWSLGARSNYGLSTGQRGCA, the amyloid nucleation score entry is “inactive”.

Take VLVVPKQVTWEVGF: the amyloid nucleation score result was “inactive”.

With DLWHPMSY, the amyloid nucleation score was -0.466 ± 0.84.

In the case of VYPCKIFCVFVVAVILFFSL, the amyloid nucleation score result is “inactive”.

Regarding NVFNFRVDSSDHPPVSAWWD, the amyloid nucleation score result is “inactive”.

In the case of RNGLSIGVNVGHLT, the amyloid nucleation score entry is “inactive”.

In the case of KVSYSQTPISGRTDTPVPDR, the amyloid nucleation score is 0.294 ± 0.2.

Turning to QLIELGRVVTCV, the amyloid nucleation score result was “inactive”.

As for LVLLHVLGERSSAPRRTVMR, the amyloid nucleation score entry was “inactive”.

With RRRLIR, the amyloid nucleation score result was “inactive”.

As to RGFLVRWAPFCLGFGSTLND, the amyloid nucleation score result is “inactive”.

As to AVYQLDMCDLVMVSLDGTVR, the amyloid nucleation score result was “inactive”.

For CRYESVYLNVEILPVTVAVV, the amyloid nucleation score entry is “inactive”.

Regarding HDHFWLYCMCNRTSGYLESF, the amyloid nucleation score result was “inactive”.

With WFSPRDVNYSREVFKANTLT, the amyloid nucleation score result is “inactive”.

Regarding FFPAMRTCWGKSGCARPYA, the amyloid nucleation score result was “inactive”.

As to SLMKGCTLLDSFRLRKP, the amyloid nucleation score result is “inactive”.

With QIRAIMYVFGISVSAVLGAK, the amyloid nucleation score was -0.19 ± 0.49.

The substance QDTLYMLDPGG had an amyloid nucleation score of -0.318 ± 0.7.

For KCTANL, the amyloid nucleation score result was “inactive”.

Take GNYVRIETS: the amyloid nucleation score entry is “inactive”.

Take LTSCTATLCICCSRVVTVEI: the amyloid nucleation score turned out to be 1.24 ± 0.082.

NINIY showed an amyloid nucleation score of -0.302 ± 0.96.

VYFRVFCFVSLCGVY showed an amyloid nucleation score of -0.548 ± 0.9.

The substance FAGEATVDTWTIFMCVIRGW gave an amyloid nucleation score of -0.225 ± 0.53.

Take VLLFLTFMYSLSFWSMLLRG: the amyloid nucleation score entry was “inactive”.

As to QWMQRTW, the amyloid nucleation score entry is “inactive”.

Substance VSYRCSTICTNLVITVCLCD had an amyloid nucleation score of 0.25 ± 0.34.

For the substance LRMHWDTYERSVDTIASVVH, the amyloid nucleation score entry is “inactive”.

Regarding VSLQLLWNPMLSYFTFQVGR, the amyloid nucleation score came to 1.16 ± 0.19.

For PMKFQVFGVSQGVR, the amyloid nucleation score entry was “inactive”.

Regarding TLGSAEDMYRQPRIANTDSC, the amyloid nucleation score is -0.123 ± 0.59.

For CEQQSRYHMKFMPASLLSFK, the amyloid nucleation score result was “inactive”.

LLIKAAFGKMVRCKFRLIEW yielded an amyloid nucleation score of -0.454 ± 1.4.

In the case of ECLRLDCGTSRLYYYHLITM, the amyloid nucleation score was 0.814 ± 0.24.

Consider GENIEYMF, for which the amyloid nucleation score was 0.025 ± 0.31.

Consider KEWVMRLSVGYIDSFHRFAW, for which the amyloid nucleation score entry was “inactive”.

Consider FQRVCYHVWSTKN, for which the amyloid nucleation score entry is “inactive”.

On to SSGHMICIYYQLVHIIVRLC, for which the amyloid nucleation score entry is “inactive”.

As for FVRDRFTIMFEWIAVLRLEL, the amyloid nucleation score entry is “inactive”.

SDNELMIAFESG: the amyloid nucleation score entry is “inactive”.

With FAKFAKSYNRPITVVLANCS, the amyloid nucleation score entry was “inactive”.

IRDLSLNQSGYFTFVTCWRC: the amyloid nucleation score was 2.73 ± 0.067.

As for GLGWNWDWR, the amyloid nucleation score entry was “inactive”.

In the case of DGWFNQCASESSFKVHHGS, the amyloid nucleation score entry is “inactive”.

IYPFSDMLSFWGMGKCELLR returned an amyloid nucleation score of -0.361 ± 1.1.

Take PNLYIMYGAFKIVLHSPDWG: the amyloid nucleation score entry is “inactive”.

On to WGQCNELTMFFRFFLTFYIA, for which the amyloid nucleation score entry is “inactive”.

For EMTGTYEVCFMT, the amyloid nucleation score result is “inactive”.

For the substance SFYLVYRGIFDISLTEFVL, the amyloid nucleation score result is “inactive”.

On to WLWISMVYCHLKDIRIIVGN, for which the amyloid nucleation score result was “inactive”.

For MKCCFSTLIPAKYNLDTLIL, the amyloid nucleation score result was “inactive”.

Regarding GYLLRFMCCNCIPSTEIMIE, the amyloid nucleation score turned out to be 2.73 ± 0.056.

As to LCSVVTSRAMSGSF, the amyloid nucleation score result is “inactive”.

Regarding GSVFGKVGTVKSEMPRGSSN, the amyloid nucleation score result is “inactive”.

As for GRANGFQQIDLCEYHREYLN, the amyloid nucleation score entry was “inactive”.

Regarding RVLYSFQCAFLMDKETSSGR, the amyloid nucleation score result is “inactive”.

Regarding ESYRTKFIVFGWGL, the amyloid nucleation score was 0.835 ± 0.12.

Take VSELPSACDNYIYCCNG: the amyloid nucleation score is 0.326 ± 0.2.

IQANSLLSRLLRLSGNCCWM: the amyloid nucleation score amounted to 0.127 ± 0.8.

In the case of ILARYLDIYMSSVPVEWVTK, the amyloid nucleation score entry was “inactive”.

For the substance FVDGVSYGTGTSSYKRTELY, the amyloid nucleation score result was “inactive”.

For KLSSFSSLQIYTWYMILG, the amyloid nucleation score entry is “inactive”.

Consider SLCVVGP, for which the amyloid nucleation score was -0.107 ± 0.6.

As to IWFWKGICLRYTSRKGMNLR, the amyloid nucleation score worked out at 1.75 ± 0.11.

Regarding HESKTMRKEEIMYTRWYKVL, the amyloid nucleation score entry is “inactive”.

For the substance VASSKQYLGTVTYLDGVA, the amyloid nucleation score result was “inactive”.

As for DIVCNFVT, the amyloid nucleation score entry was “inactive”.

The record behind these values is the supplement of paper PMC12042874.
